From PMC4163015 (Cell, 2014)

Biological target: T1, heterodimeric cofactor Ufd1p/Npl4p (S. cerevisiae, UniProt P53044 1-361; P33755 1-580)
T1 sequence (looked up) 1: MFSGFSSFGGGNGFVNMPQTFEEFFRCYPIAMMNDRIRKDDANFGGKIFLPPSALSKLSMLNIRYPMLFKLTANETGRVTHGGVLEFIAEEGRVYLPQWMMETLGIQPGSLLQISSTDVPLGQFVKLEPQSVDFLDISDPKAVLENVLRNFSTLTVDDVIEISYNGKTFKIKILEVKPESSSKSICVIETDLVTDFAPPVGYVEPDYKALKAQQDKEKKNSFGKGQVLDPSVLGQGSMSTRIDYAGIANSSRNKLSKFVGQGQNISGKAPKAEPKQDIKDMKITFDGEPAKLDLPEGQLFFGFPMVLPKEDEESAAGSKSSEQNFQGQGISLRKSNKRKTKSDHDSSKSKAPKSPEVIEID
T1 sequence (looked up) 2: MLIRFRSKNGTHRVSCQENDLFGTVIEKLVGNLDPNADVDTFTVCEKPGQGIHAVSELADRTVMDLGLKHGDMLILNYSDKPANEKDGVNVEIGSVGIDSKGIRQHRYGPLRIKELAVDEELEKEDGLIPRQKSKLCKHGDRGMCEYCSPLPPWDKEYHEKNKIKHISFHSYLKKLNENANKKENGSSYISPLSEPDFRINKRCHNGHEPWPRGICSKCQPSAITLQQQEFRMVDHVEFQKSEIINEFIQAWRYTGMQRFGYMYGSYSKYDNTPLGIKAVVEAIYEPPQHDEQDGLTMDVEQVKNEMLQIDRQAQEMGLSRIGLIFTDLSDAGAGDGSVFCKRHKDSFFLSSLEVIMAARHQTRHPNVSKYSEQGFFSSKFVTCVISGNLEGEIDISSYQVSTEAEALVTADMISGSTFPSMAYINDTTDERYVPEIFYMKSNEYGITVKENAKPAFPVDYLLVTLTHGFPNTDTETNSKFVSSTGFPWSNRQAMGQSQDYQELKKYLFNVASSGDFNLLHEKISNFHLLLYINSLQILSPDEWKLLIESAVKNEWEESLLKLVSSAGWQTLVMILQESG
Experiment: SEC

- binding result: binds
B1: Cdc48p ATPase (enzyme, S. cerevisiae, UniProt P25694 1-835, looked up)
chain: MGEEHKPLLDASGVDPREEDKTATAILRRKKKDNMLLVDDAINDDNSVIAINSNTMDKLELFRGDTVLVKGKKRKDTVLIVLIDDELEDGACRINRVVRNNLRIRLGDLVTIHPCPDIKYATRISVLPIADTIEGITGNLFDVFLKPYFVEAYRPVRKGDHFVVRGGMRQVEFKVVDVEPEEYAVVAQDTIIHWEGEPINREDEENNMNEVGYDDIGGCRKQMAQIREMVELPLRHPQLFKAIGIKPPRGVLMYGPPGTGKTLMARAVANETGAFFFLINGPEVMSKMAGESESNLRKAFEEAEKNAPAIIFIDEIDSIAPKRDKTNGEVERRVVSQLLTLMDGMKARSNVVVIAATNRPNSIDPALRRFGRFDREVDIGIPDATGRLEVLRIHTKNMKLADDVDLEALAAETHGYVGADIASLCSEAAMQQIREKMDLIDLDEDEIDAEVLDSLGVTMDNFRFALGNSNPSALRETVVESVNVTWDDVGGLDEIKEELKETVEYPVLHPDQYTKFGLSPSKGVLFYGPPGTGKTLLAKAVATEVSANFISVKGPELLSMWYGESESNIRDIFDKARAAAPTVVFLDELDSIAKARGGSLGDAGGASDRVVNQLLTEMDGMNAKKNVFVIGATNRPDQIDPAILRPGRLDQLIYVPLPDENARLSILNAQLRKTPLEPGLELTAIAKATQGFSGADLLYIVQRAAKYAIKDSIEAHRQHEAEKEVKVEGEDVEMTDEGAKAEQEPEVDPVPYITKEHFAEAMKTAKRSVSDAELRRYEAYSQQMKASRGQFSNFNFNDAPLGTTATDNANSNNSAPSGAGAAFGSNAEEDDDLYS
